The chains are these.
B1: glmS ribozyme (parent)
chain: AUAAAAGCGCCAGAACUACAGAAAUGUAGUUGACGAGGAGGAGGUUUAUCGAAUUUUCGGCGGAUGCCUCCAAA

Consider 81 variants from the supplement of paper PMC7125110.

± gives the standard error. Fewer inactive variants are shown than the library holds.

The first data set covers variants of B1. As to the kind of experiment: self-cleavage kobs at 10000 uM GlcN6P; higher = faster cleavage; RNA array. To be noted: with glucosamine-6-phosphate. In outline: (§1)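 Tracking of barcoded ribozyme variants used a hybridised Cy3 probe at 37 °C, after in situ transcription by E. coli RNA polymerase on sequenced MiSeq chips. The flowed solution held 40 μM to 10 mM glucosamine-6-phosphate in HEPES/KCl/Mg(OAc)2 buffer, and imaging ran over ~14 h. kobs was taken from exponential decay fits of normalised per-tile medians, and kcat and KM from weighted Michaelis–Menten fits.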
For U45C C50G U54A, the “self-cleavage kobs at 10000 uM GlcN6P” value is under 1e-05 s⁻¹.
In the case of G43C C68U C70G C71U, the “self-cleavage kobs at 10000 uM GlcN6P” value is under 1e-05 s⁻¹.
Take A6U G38A G66C: the “self-cleavage kobs at 10000 uM GlcN6P” value was under 1e-05 s⁻¹.
In the case of C10G C34A A52U, the “self-cleavage kobs at 10000 uM GlcN6P” value was under 1e-05 s⁻¹.
Same read-out and setting: under C16U G29U G32C stands 8.38e-05 ± 1.7e-05 s⁻¹; under C11U A15G G43A C67G, 0.000119 ± 3.5e-05 s⁻¹; under C16U G38A A52G C71G, under 1e-05 s⁻¹.
On the same count and under the same terms, with C11U A36C A39G U45G C61U the figure was under 1e-05 s⁻¹; with G7A G29A G38A G44U A48G G66U, under 1e-05 s⁻¹.
On the same count and under the same terms, under U31A G51U C68A stands under 1e-05 s⁻¹; under A6C G32U C50A, under 1e-05 s⁻¹.
On to A14G A64G C68G, for which the “self-cleavage kobs at 10000 uM GlcN6P” value was under 1e-05 s⁻¹.
Consider A48G U49G, for which the “self-cleavage kobs at 10000 uM GlcN6P” value turned out to be 5.7e-05 ± 2.1e-05 s⁻¹.
As to C10G C34A C67G, the “self-cleavage kobs at 10000 uM GlcN6P” value is 0.00066 ± 0.00026 s⁻¹.
C50U A53U G59C U65A: the “self-cleavage kobs at 10000 uM GlcN6P” value is under 1e-05 s⁻¹.
Still for that read-out and setting: under C11U U55G U65A stands 4.36e-05 ± 2e-05 s⁻¹; under A48G C58A, 4.59e-05 ± 1.1e-05 s⁻¹.
Turning to G35C G37U C68G, the “self-cleavage kobs at 10000 uM GlcN6P” value worked out at 7.56e-05 ± 2.4e-05 s⁻¹.
Still for that read-out and setting: with G7C A15C G41A the figure was under 1e-05 s⁻¹; with C16A G35C U65G, under 1e-05 s⁻¹; with C34A G35C A48U, under 1e-05 s⁻¹.
Turning to G29C G32C A39G, the “self-cleavage kobs at 10000 uM GlcN6P” value came to 7.25e-05 ± 1.8e-05 s⁻¹.
Take A36U G51U C68G: the “self-cleavage kobs at 10000 uM GlcN6P” value came out at 4.33e-05 ± 1.7e-05 s⁻¹.
On the same count and under the same terms, with G38A U57C A64U the figure was under 1e-05 s⁻¹.
Turning to C11U A15G C58G C68U, the “self-cleavage kobs at 10000 uM GlcN6P” value stood at 0.000112 ± 2.5e-05 s⁻¹.
On to G7U G9U G44A C68G, for which the “self-cleavage kobs at 10000 uM GlcN6P” value was under 1e-05 s⁻¹.
The same measure, in the same setting: with C10U C11G U57A the figure was under 1e-05 s⁻¹; with G13U A39G C68U, 0.000334 ± 8.3e-05 s⁻¹.
Take G13C A42C C50U: the “self-cleavage kobs at 10000 uM GlcN6P” value was under 1e-05 s⁻¹.
Consider G13C A15U C58G, for which the “self-cleavage kobs at 10000 uM GlcN6P” value worked out at 0.000104 ± 1.7e-05 s⁻¹.
Still for that read-out and setting: under A36C G37C A53U U69C stands under 1e-05 s⁻¹.
Turning to G40C U45A U49G, the “self-cleavage kobs at 10000 uM GlcN6P” value was 5.2e-05 ± 1.9e-05 s⁻¹.
The same measure, in the same setting: with A39U U46A A53G the figure was 0.00108 ± 0.00026 s⁻¹; with U45G C58A G66U, 8.19e-05 ± 1.6e-05 s⁻¹; with G35U G41U C67G, under 1e-05 s⁻¹.
Take U45A G62A: the “self-cleavage kobs at 10000 uM GlcN6P” value was under 1e-05 s⁻¹.
Same read-out and setting: with C8U A42U C50U the figure was under 1e-05 s⁻¹.
As for C16A G35C A64C, the “self-cleavage kobs at 10000 uM GlcN6P” value is under 1e-05 s⁻¹.
As for G40C G41U C71A, the “self-cleavage kobs at 10000 uM GlcN6P” value turned out to be 0.000104 ± 1.6e-05 s⁻¹.
C16G G32U C70U: the “self-cleavage kobs at 10000 uM GlcN6P” value worked out at 0.000712 ± 0.00013 s⁻¹.
Same read-out and setting: under A12G C16U G29A G40A A42U U45G stands 8.82e-05 ± 1.6e-05 s⁻¹; under U31G G40U C67A, 6.16e-05 ± 1.3e-05 s⁻¹.

Another data set covers variants of B1. As to the kind of experiment: self-cleavage kobs at 2500 uM GlcN6P; higher = faster cleavage; RNA array. To be noted: with glucosamine-6-phosphate. The essentials:
as §1
Turning to G9A G29C G35A G44U U46A A64C, the “self-cleavage kobs at 2500 uM GlcN6P” value is under 1e-05 s⁻¹.
For G13U A48U G59C G62U, the “self-cleavage kobs at 2500 uM GlcN6P” value was under 1e-05 s⁻¹.
Still for that read-out and setting: under G13U A36G G38C C50A stands under 1e-05 s⁻¹; under G13U C34U A39G G62A, under 1e-05 s⁻¹; under U30G G32U G35A A53G, under 1e-05 s⁻¹.
Consider A33U A53G G62C U65C, for which the “self-cleavage kobs at 2500 uM GlcN6P” value was under 1e-05 s⁻¹.
As to C10G C34A A52U, the “self-cleavage kobs at 2500 uM GlcN6P” value is under 1e-05 s⁻¹.
In the case of G9A A14C A15G G35C A39G A52C A53G, the “self-cleavage kobs at 2500 uM GlcN6P” value is under 1e-05 s⁻¹.
Regarding C11U A15G G43A C67G, the “self-cleavage kobs at 2500 uM GlcN6P” value amounted to 0.000114 ± 3.9e-05 s⁻¹.
Turning to C16G G43U G62A, the “self-cleavage kobs at 2500 uM GlcN6P” value was under 1e-05 s⁻¹.
Take G13U C16U A39U A53G: the “self-cleavage kobs at 2500 uM GlcN6P” value was found to be 0.000359 ± 0.00012 s⁻¹.
As to G9A C10U U31C G44A, the “self-cleavage kobs at 2500 uM GlcN6P” value was under 1e-05 s⁻¹.
As to G13C G40A G60U, the “self-cleavage kobs at 2500 uM GlcN6P” value is under 1e-05 s⁻¹.
The same measure, in the same setting: with C19A A53C C71A the figure was 0.000384 ± 0.00012 s⁻¹; with A36G G40U U45G, under 1e-05 s⁻¹; with C8A C58A A64C, under 1e-05 s⁻¹.
On to A48C C50G A64C, for which the “self-cleavage kobs at 2500 uM GlcN6P” value is under 1e-05 s⁻¹.
Consider U46A A53U C68U, for which the “self-cleavage kobs at 2500 uM GlcN6P” value was determined as 0.000125 ± 6.3e-05 s⁻¹.
Same read-out and setting: with C8A C16U A36C A42U the figure was under 1e-05 s⁻¹; with G37U G38U U49C G59A, under 1e-05 s⁻¹; with A39U G41C A52U, under 1e-05 s⁻¹.
As to A39G G41U U69A, the “self-cleavage kobs at 2500 uM GlcN6P” value is 5.05e-05 ± 2.2e-05 s⁻¹.
Turning to G37A U49G C70U, the “self-cleavage kobs at 2500 uM GlcN6P” value came out at 7.97e-05 ± 2e-05 s⁻¹.
On the same count and under the same terms, with U46G C61U A64G the figure was under 1e-05 s⁻¹.
With A48U C50A U65G, the “self-cleavage kobs at 2500 uM GlcN6P” value was under 1e-05 s⁻¹.
For the variant A14C U30C G32A C58G, the “self-cleavage kobs at 2500 uM GlcN6P” value came out at 7.82e-05 ± 3.2e-05 s⁻¹.
As for G43C A53U C58G A64G, the “self-cleavage kobs at 2500 uM GlcN6P” value is under 1e-05 s⁻¹.
As to A6U U47A A53G G59U, the “self-cleavage kobs at 2500 uM GlcN6P” value is under 1e-05 s⁻¹.
Turning to A12U A33U G37U U56A, the “self-cleavage kobs at 2500 uM GlcN6P” value was under 1e-05 s⁻¹.
Consider G13U G38A U55A A64U, for which the “self-cleavage kobs at 2500 uM GlcN6P” value was under 1e-05 s⁻¹.
On to A6G G32C C67U C71G, for which the “self-cleavage kobs at 2500 uM GlcN6P” value was under 1e-05 s⁻¹.
As for C10U C11G U57A, the “self-cleavage kobs at 2500 uM GlcN6P” value is under 1e-05 s⁻¹.
For the variant C16G A36U G60A, the “self-cleavage kobs at 2500 uM GlcN6P” value was under 1e-05 s⁻¹.
With G9C A42C A52C G66C, the “self-cleavage kobs at 2500 uM GlcN6P” value was under 1e-05 s⁻¹.
Consider G29U G44A U46C U65C, for which the “self-cleavage kobs at 2500 uM GlcN6P” value was under 1e-05 s⁻¹.
Take A6G G9C C70G: the “self-cleavage kobs at 2500 uM GlcN6P” value was under 1e-05 s⁻¹.
C10U C11A C70A: the “self-cleavage kobs at 2500 uM GlcN6P” value amounted to 7.8e-05 ± 2.7e-05 s⁻¹.
Take G40C G41U C71A: the “self-cleavage kobs at 2500 uM GlcN6P” value amounted to 4.86e-05 ± 1.8e-05 s⁻¹.
Same read-out and setting: with A15U A48C G59A G60U the figure was under 1e-05 s⁻¹; with G9A A15G G26U, under 1e-05 s⁻¹; with G9A G40U G63A A64U, under 1e-05 s⁻¹.
Consider G7U U46G A48U, for which the “self-cleavage kobs at 2500 uM GlcN6P” value is under 1e-05 s⁻¹.
Consider A12G C16U G29A G40A A42U U45G, for which the “self-cleavage kobs at 2500 uM GlcN6P” value is 8.49e-05 ± 2.3e-05 s⁻¹.
U2C A53C: the “self-cleavage kobs at 2500 uM GlcN6P” value was determined as 0.00726 ± 0.0019 s⁻¹.
